According to publication PMC4183573, “Cyclophilin A Associates with Enterovirus-71 Virus Capsid and Plays an Essential Role in Viral Infection as an Uncoating Regulator” (PLoS Pathogens, 2014):
Where no end group is shown, it is not given here.

Target: T1, recombinant human CypA without a GST tag (human, UniProt P62937 1-165)
T1 construct: cyclophilin A (CypA), human, cloned into pGEX-6p-1; source: E. coli BL21 (DE3), purified (GST column, PreScission Protease, Superdex-75); not shown: GST, N-terminal, cleaved
Experiment: pull-down; recombinant human CypA (200 µg) with 50 µl glutathione-sepharose beads holding GST, GST-1S or GST-1P (200 µg) in 300 µl buffer (50 mM Tris-HCl pH 8.0, 150 mM NaCl, 1% Nonidet P-40, 2 mM EDTA), overnight at 4°C; eluted with GSH; blot for GST and CypA
Conditions: both partners purified

Row | Binder | binding result
1 | GSSKPKYPL (also: fused to GST, H-I loop of the capsid protein VP1 of EV71, residues 239-247, with S243P; numbers count on: the VP1 protein, not the polypeptide; source: E. coli BL21 (DE3), held on glutathione-sepharose (GST column) beads; not shown: GST, N-terminal, kept) [GST-1P: H-I loop of EV71 VP1 with the S243P substitution (239-GSSKPKYPL-247) fused to GST] | binds
2 | GSSKSKYPL (also: fused to GST, H-I loop of the capsid protein VP1 of EV71, residues 239-247; numbers count on: the VP1 protein, not the polypeptide; source: E. coli BL21 (DE3), held on glutathione-sepharose (GST column) beads; not shown: GST, N-terminal, kept) [GST-1S: peptide of the H-I loop of EV71 VP1 (239-GSSKSKYPL-247) fused to GST] | binds
